These results are taken from paper PMC5387032 (Photosynthesis Research, 2017).

Data set [1] deals with the molecule itself. In words: native gel or EMSA; raf1 from Synechocystis co-expressed with rbcL genes in E. coli (or rbcL alone); crude extracts separated by native PAGE and probed with anti-RbcL or anti-RAF1 antibodies. (A gel shift assay detects complexes by their altered migration in electrophoresis.)
Data set [2] deals with T1, RbcL from Thermosynechococcus elongatus, made in E. coli (Thermosynechococcus vestitus (strain …, UniProt Q8DIS5)).
T1 chain: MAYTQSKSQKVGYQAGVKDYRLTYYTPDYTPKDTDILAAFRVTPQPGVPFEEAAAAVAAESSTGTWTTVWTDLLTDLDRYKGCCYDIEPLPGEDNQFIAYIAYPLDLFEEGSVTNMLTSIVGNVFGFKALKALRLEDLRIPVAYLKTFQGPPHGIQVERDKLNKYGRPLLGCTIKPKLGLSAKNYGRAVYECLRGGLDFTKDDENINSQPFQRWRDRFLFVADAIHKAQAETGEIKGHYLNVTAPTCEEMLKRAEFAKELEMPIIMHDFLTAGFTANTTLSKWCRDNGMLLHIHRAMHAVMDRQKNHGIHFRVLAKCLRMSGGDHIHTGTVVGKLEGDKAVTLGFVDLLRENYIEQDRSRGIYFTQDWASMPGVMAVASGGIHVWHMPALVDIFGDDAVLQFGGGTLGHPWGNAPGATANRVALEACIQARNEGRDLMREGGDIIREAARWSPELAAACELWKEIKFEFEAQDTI
Put plainly: co-expression in E. coli with co-purification of the complex; native PAGE.

Usually stoichiometry N stands for a count of units in the complex or per binding partner.

B1: RbcL from Thermosynechococcus elongatus, made in E. coli (natural protein, UniProt Q8DIS5 1-475, looked up)
chain: T1 chain
notes: Ribulose-1,5-bisphosphate carboxylase/oxygenase large subunit, Thermosynechococcus elongatus; rbcL gene in the previously described pUC18rbcL plasmid (Tarnawski et al. 2008); also called RbcLTe; Te; source: E. coli Rosetta, expressed alone or co-expressed with raf1 or rbcX from Synechocystis, in crude extract; complexes purified (ammonium sulfate, Q-Sepharose)
For the molecule B1, the “stoichiometry N” value in data set [1] was found to be 8.

B2: RAF1 from Synechocystis sp. PCC 6803, untagged, made in E. coli (protein)
chain: MTHSPESNPTVSAAEAAELIRSLLHKEGTWVDWGKKCQQLQKAGYGAEEIFEQSGFQKVQQNLVIVASQVYESLVKQGIDETVLSYYRGPKSDVLYELRILNHQQRAIAAVEAQQKNLAADEAKELAKAFQEFGYLSQLPEGFTDHPGDALAYQCWKLARQKKNLPERTRLIVKGLKFAHSPNARQAIEKLLTDLTAQPSRKAPLVPVFRLEEDQEAARLIPVAGTFPLQPQAVQAVQSLEQVEPFGLVSYQGEGAVVPVPQWQAILTAEDPVAIFCPAGQVSESLARKDEQVLVVVDRSKKIWNDGSYFLLNQGETVAIQWCETEPEREILAQVVLVLRPKKIFDANNLREPWQMDD
For B2, in data set [2], the binding result was “binds”.
